Results reported in US20240116985A1 (published 2024).
Starred links: 1 amine or outer side, 2 acyl side, 3 side chain; linkers in the order of their positions; H or OH if unused. Positions of bridges follow the written chain, without caps; N, C: chain ends. Non-standard residues stand in square brackets, D forms with d. Primed or numbered codes have the meaning given here. ξ: configuration not given here. PyrS2″ = (S)-3-amino-1-((pent-4-en-1-yloxy)carbonyl)pyrrolidine-3-carboxylic acid (stapling residue), C=CCCCOC(=O)N1CC[C@@](N[*:1])(C(=O)[*:2])C1; B5(16) = 2-amino-2-(pent-4-en-1-yl)hept-6-enoic acid = 2,2-bis(4-pentenyl)glycine (stitching residue), C=CCCCC(CCCC=C)(N[*:1])C(=O)[*:2]; B5(4) = 2,2-bis(4-pentenyl)glycine = 2-amino-2-(pent-4-en-1-yl)hept-6-enoic acid (stitching residue), C=CCCCC(CCCC=C)(N[*:1])C(=O)[*:2]; TfeGA = (S)-2-amino-3-((carboxymethyl)(2,2,2-trifluoroethyl)amino)propanoic acid, O=C([C@H](CN(CC(=O)[*:3])CC(F)(F)F)N[*:1])[*:2]; Phe(2-Cl) = N[C@@H](Cc1ccccc1Cl)C(=O)O; Bta = N[C@@H](Cc1csc2ccccc12)C(=O)O; αAllylPro = C=CC[C@@]1(C(=O)O)CCCN1; tBuAla = CC(C)(C)C[C@H](N)C(=O)O; 3Thi = N[C@@H](Cc1ccsc1)C(=O)O; Cha = N[C@@H](CC1CCCCC1)C(=O)O; S8 = C=CCCCCCC[C@](C)(N)C(=O)O; ξβ3hD = NC(CC(=O)O)CC(=O)O; Aib = CC(C)(N)C(=O)O

B1: I-350 (peptide)
peptide: XDAXADAAFVXFWQ
modifications: not fully specified; N-terminal Ac; C-terminal NH2; PL3 at 1, B5 at 4, S8 at 11 (stapled 1-4 and 4-11)
notes: Stapled peptide composition; Earlier-eluting isomer composition; also called Ac-PL3-Asp-Ala-B5-Ala-Asp-Ala-Ala-Phe-Val-S8-Phe-Trp-Gln-NH2
B2: I-349 (peptide)
peptide: XAAXDDAAFVXFWQ
modifications: not fully specified; N-terminal Ac; C-terminal NH2; PL3 at 1, B5 at 4, S8 at 11 (stapled 1-4 and 4-11)
notes: Stapled peptide composition; Later-eluting isomer composition; also called Ac-PL3-Ala-Ala-B5-Asp-Asp-Ala-Ala-Phe-Val-S8-Phe-Trp-Gln-NH2
B3: I-352 (peptide)
peptide: Ac-[αAllylPro]DA[B5(16)]DAAAFV[S8]FWQ-NH2
modifications: staple 1-4, 4-11
notes: Stapled peptide composition; also called Ac-PL3-Asp-Ala-B5-Asp-Ala-Ala-Ala-Phe-Val-S8-Phe-Trp-Gln-NH2
B4: I-351 (peptide)
peptide: XDAXADAAFVXFWQ
modifications: not fully specified; N-terminal Ac; C-terminal NH2; PL3 at 1, B5 at 4, S8 at 11 (stapled 1-4 and 4-11)
notes: Stapled peptide composition; Later-eluting isomer composition; also called Ac-PL3-Asp-Ala-B5-Ala-Asp-Ala-Ala-Phe-Val-S8-Phe-Trp-Gln-NH2
B5: I-348 (peptide)
peptide: XAAXDDAAFVXFWQ
modifications: not fully specified; N-terminal Ac; C-terminal NH2; PL3 at 1, B5 at 4, S8 at 11 (stapled 1-4 and 4-11)
notes: Stapled peptide composition; Earlier-eluting isomer composition; also called Ac-PL3-Ala-Ala-B5-Asp-Asp-Ala-Ala-Phe-Val-S8-Phe-Trp-Gln-NH2
B6: I-1153 (peptide)
peptide: Ac-[αAllylPro]DF[B5(16)]DDLAFS[PyrS2″][Phe(2-Cl)][Bta]Q-NH2
modifications: staple 1-4, 4-11
notes: Stapled (stitched) peptide composition; olefin isomer not specified
B7: I-1156 (peptide)
peptide: Ac-[αAllylPro]DF[B5(4)]DDLAFT[PyrS2″][Phe(2-Cl)][Bta]S-NH2
modifications: staple 1-4, 4-11
notes: as for B6
B8: I-1157 (peptide)
peptide: Ac-[αAllylPro]DF[B5(4)]DDALFT[PyrS2″][Phe(2-Cl)][Bta]S-NH2
modifications: staple 1-4, 4-11
notes: as for B6

molecular target: T1, B-cat-Halo (beta-catenin HaloTag construct expressed in HEK293 cells) (UniProt P35222 1-781); assay: cell-based or functional assay
T1 sequence (looked up): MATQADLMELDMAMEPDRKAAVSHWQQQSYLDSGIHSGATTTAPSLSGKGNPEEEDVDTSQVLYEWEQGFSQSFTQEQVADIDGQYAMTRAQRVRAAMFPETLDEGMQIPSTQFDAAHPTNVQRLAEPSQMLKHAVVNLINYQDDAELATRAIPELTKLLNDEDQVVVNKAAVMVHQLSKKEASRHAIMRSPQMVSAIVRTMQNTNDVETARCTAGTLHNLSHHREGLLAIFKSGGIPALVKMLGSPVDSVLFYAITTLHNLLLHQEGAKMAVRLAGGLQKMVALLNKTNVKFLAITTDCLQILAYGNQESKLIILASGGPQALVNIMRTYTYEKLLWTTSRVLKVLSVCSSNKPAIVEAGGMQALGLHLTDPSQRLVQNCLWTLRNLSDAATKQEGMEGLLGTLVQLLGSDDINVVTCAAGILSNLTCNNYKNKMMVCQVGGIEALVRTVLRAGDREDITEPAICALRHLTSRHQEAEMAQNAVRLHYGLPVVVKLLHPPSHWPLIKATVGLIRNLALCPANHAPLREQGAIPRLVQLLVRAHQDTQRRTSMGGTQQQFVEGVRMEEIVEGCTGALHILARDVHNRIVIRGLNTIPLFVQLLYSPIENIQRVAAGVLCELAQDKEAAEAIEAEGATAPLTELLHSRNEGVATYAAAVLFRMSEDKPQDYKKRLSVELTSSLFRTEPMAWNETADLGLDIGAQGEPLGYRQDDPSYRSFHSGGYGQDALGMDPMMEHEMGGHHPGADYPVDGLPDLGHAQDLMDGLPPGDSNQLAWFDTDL

Binder | NanoBRET Abs IC50 [µM]
Ac-[αAllylPro]D[tBuAla][B5(4)]DD[Aib]AFL[PyrS2″][3Thi][Bta]Q-NH2 (staple 1-4, 4-11) [I-1177] | 4.3
Ac-[αAllylPro]D[tBuAla][B5(4)]DTAAFL[PyrS2″][3Thi][Bta]Q-NH2 (staple 1-4, 4-11) [I-1167] | 11.7
Ac-[αAllylPro]D[Cha][B5(4)]DTAAFT[PyrS2″][3Thi][Bta]Q-NH2 (staple 1-4, 4-11) [I-1173] | 17.2
Ac-[αAllylPro][ξβ3hD][tBuAla][B5(4)]D[TfeGA]AAFN[PyrS2″][3Thi][Bta]Q-NH2 (staple 1-4, 4-11) [I-1161] | > 20
Ac-[αAllylPro]D[tBuAla][B5(4)]DTAAFT[PyrS2″][3Thi][Bta]S-NH2 (staple 1-4, 4-11) [I-1170] | 13.5
Ac-[αAllylPro]D[tBuAla][B5(4)]DTAAFT[PyrS2″][3Thi][Bta]Q-NH2 (staple 1-4, 4-11) [I-1166] | 14.6

molecular target: T2, full-length beta-Catenin (Uniprot ID P35222) (Homo sapiens (Human), UniProt P35222 2-781); assay: AlphaScreen competition; peptide titrated against full-length beta-catenin + biotin-TCF4(10-53)
T2 construct: The assay protocols say only 'full-length'; No tag is stated, although the AlphaScreen kit is a Histidine (Nickel Chelate) kit; also called B-Catenin; bCat
T2 sequence: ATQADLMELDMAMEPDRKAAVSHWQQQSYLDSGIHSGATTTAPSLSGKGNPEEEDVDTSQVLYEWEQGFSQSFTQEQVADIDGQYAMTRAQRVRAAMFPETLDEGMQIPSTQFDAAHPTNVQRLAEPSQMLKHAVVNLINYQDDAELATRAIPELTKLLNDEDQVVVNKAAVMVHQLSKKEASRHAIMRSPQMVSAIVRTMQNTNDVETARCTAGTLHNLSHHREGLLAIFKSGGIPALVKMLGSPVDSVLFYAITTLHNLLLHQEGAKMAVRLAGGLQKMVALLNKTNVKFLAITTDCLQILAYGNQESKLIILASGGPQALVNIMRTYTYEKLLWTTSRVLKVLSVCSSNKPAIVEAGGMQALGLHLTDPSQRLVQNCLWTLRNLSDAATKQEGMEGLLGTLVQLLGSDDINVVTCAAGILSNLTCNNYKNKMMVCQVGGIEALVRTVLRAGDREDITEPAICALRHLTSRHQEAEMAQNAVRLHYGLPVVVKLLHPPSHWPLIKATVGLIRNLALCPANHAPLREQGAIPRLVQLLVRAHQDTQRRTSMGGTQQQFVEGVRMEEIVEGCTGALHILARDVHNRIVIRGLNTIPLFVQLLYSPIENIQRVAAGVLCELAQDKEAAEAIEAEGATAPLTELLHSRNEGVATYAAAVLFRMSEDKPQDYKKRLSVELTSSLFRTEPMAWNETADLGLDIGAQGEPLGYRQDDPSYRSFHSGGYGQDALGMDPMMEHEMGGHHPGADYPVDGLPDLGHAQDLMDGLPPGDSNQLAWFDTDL
Protocol: Equal volume of the titrated peptide was added to the plate and incubated for 15 minutes at 20° C. Then 4 uL of donor and 4 uL acceptor beads at 10 ug/mL were added to the plate, for a 16 uL reaction pool and protected from light for 60 minutes at 20° C. prior to read. Reads were performed on a CLARIOstar plate reader (BMG Labtech) in duplicate, and data were fitted to a 1:1 binding model with hill slope using an in-house script. All provided concentrations are final concentrations.

Binder | EC50 [µM]
B1 | 10
B2 | 7.19
B3 | 0.377
B4 | 10
B5 | 10

molecular target: T3, full-length beta-Catenin (Uniprot ID P35222) (Homo sapiens (Human), UniProt P35222 2-781); assay: fluorescence polarization competition vs 5FAM-TCF4(10-53) on full-length beta-catenin
T3 construct: also called bCat; B-Catenin
T3 sequence: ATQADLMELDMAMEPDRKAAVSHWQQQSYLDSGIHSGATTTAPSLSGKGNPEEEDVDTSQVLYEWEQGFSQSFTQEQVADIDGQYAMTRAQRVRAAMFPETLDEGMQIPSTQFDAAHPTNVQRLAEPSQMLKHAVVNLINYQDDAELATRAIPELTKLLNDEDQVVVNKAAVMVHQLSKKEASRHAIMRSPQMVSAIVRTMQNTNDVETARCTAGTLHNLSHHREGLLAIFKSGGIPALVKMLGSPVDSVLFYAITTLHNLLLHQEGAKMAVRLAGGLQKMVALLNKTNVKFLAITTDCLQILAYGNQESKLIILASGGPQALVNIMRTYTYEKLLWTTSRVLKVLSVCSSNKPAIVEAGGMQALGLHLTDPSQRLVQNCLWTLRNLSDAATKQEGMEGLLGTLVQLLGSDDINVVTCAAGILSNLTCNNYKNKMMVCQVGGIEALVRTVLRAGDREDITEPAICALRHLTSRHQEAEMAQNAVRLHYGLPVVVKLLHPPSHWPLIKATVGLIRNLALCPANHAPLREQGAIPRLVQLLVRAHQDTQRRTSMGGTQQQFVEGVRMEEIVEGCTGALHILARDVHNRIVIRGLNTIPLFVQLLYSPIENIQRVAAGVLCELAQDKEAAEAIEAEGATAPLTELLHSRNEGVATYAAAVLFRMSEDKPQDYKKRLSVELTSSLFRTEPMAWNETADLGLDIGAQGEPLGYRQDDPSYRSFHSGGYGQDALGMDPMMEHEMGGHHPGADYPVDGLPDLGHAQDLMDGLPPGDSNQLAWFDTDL
How it was run: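 Data fitted to 1:1 binding model with hill slope from duplicate reads taken after 60 minutes at 20° C. in the dark.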

Binder | IC50 [µM]
B6 | 0.012
B7 | 0.014
B8 | 0.036

molecular target: T4, Bcat-Halo (UniProt P35222 1-781, HaloTag NanoBRET 618 Ligand bound in the assay); assay: NanoBRET Abs IC50 in HEK293 cells; competitor TCF4-Luc on Bcat-Halo
T4 construct: Expressed by transfection in HEK293 cells; also called beta-catenin HaloTag NanoBRET construct; not shown: HaloTag
T4 sequence (looked up): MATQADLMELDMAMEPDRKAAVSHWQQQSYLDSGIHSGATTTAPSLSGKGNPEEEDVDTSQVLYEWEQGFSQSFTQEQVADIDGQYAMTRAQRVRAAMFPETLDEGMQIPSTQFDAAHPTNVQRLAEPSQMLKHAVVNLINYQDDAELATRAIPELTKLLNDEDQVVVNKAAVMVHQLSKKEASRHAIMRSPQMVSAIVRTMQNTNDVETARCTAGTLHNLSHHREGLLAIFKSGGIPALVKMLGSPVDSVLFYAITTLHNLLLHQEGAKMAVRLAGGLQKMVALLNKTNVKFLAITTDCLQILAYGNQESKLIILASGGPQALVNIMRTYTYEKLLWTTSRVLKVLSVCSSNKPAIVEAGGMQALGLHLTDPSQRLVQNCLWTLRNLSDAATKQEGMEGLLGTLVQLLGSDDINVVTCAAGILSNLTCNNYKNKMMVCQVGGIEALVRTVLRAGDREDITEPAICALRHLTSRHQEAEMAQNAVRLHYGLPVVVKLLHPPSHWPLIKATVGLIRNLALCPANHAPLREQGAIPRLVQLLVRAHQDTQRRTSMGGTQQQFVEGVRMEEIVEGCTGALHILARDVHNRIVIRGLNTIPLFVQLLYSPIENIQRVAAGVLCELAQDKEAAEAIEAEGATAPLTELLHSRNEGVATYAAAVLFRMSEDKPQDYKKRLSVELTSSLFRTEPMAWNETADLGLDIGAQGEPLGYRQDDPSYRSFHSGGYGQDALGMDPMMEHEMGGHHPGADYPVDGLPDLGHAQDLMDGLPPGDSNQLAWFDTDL

Binder | IC50 [µM]
B6 | > 20
B7 | 26.1
B8 | > 20
